B1: Hammerhead Ribozyme (parent)
chain: ACCGGAUGUGCUUUCCGGUCUGAUGAGUCCGUGAGGACGAAACAG

Variants of: B1
Assay: self-cleavage, relative activity (ratio to wild type); higher = more cleavage; co-transcriptional

Question: For ACCGGAUGUGCUUUCCGGUCUGAUGAGUCCCUAAGGACGAAACAG [G31C G33A], which self-cleavage is on record?
Answer: Its self-cleavage is 1.08.

Question: For ACCGGAUGUGCUUUCCGGUCUGAUGAGUCCGUUAGGACGAGACAG [G33U A41G], which self-cleavage is on record?
Answer: The self-cleavage was 0.354.

Question: Which self-cleavage does the source give for ACCGGAGGUGCUUUCCGGUCUGAUGAGUCCGUGAGGACGACACAG [U7G A41C] here?
Answer: Its self-cleavage is 0.422.

Question: For ACCGGAUGUGCUUUCCGGUCUGAUGAGUCCGUCAGGACGAAGCAG [G33C A42G], which self-cleavage is on record?
Answer: The self-cleavage was 0.346.

Question: For ACCGGAUGUGCUUUCCGGACUGAUGAGGCCGUGAGGACGAAACAG [U19A U28G], which self-cleavage is on record?
Answer: The self-cleavage was 0.374.

Question: Which self-cleavage does the source give for ACCGGAUGUGCUUUCCGGUUUGAUGAGUCCGUCAGGACGAAACAG [C20U G33C] here?
Answer: Its self-cleavage is 0.682.

Question: With ACCGGAUGUGCUUUCCGGUCUUAUGGGUCCGUGAGGACGAAACAG [G22U A26G] as the variant, how does the self-cleavage read?
Answer: The self-cleavage was 0.346.

Question: For ACCGGAUGUGCUUUCCGCUCUGAUGAGUCCGUGAGGAGGAAACAG [G18C C38G], which self-cleavage is on record?
Answer: Its self-cleavage is 0.387.

Question: Which self-cleavage does the source give for AGCGGAUGUGCUUUCCGGUCUGAUGAGUCCGUGAGGACGAACCAG [C2G A42C] here?
Answer: The self-cleavage was 0.32.

Question: With ACCGGAUGUGCCUUCCGGUCUGAUGAGUGCGUGAGGACGAAACAG [U12C C29G] as the variant, how does the self-cleavage read?
Answer: Its self-cleavage is 0.599.

Question: Which self-cleavage does the source give for ACAGGAUGUGCUUUCCGGUCUGAUGAAUCCGUGAGGACGAAACAG [C3A G27A] here?
Answer: The self-cleavage was 0.365.

Question: Which self-cleavage does the source give for ACCGGAUGUGCUUUCCCGUCUGAUGAGUCCGUGAGGACGAAAUAG [G17C C43U] here?
Answer: Its self-cleavage is 0.404.

Question: With ACCGGAUGGGCUUUCCGGUCUGAUGUGUCCGUGAGGACGAAACAG [U9G A26U] as the variant, how does the self-cleavage read?
Answer: Its self-cleavage is 0.344.

Question: For ACCGGAUGGACUUUCCGGUCUGAUGAGUCCGUGAGGACGAAACAG [U9G G10A], which self-cleavage is on record?
Answer: Its self-cleavage is 0.891.

Question: Which self-cleavage does the source give for ACCGGAUUUGCUUUCCGCUCUGAUGAGUCCGUGAGGACGAAACAG [G8U G18C] here?
Answer: Its self-cleavage is 0.513.

Question: Which self-cleavage does the source give for ACCGGAUUUGCUUUCCGGUCUGAUGAGUCCGUGGGGACGAAACAG [G8U A34G] here?
Answer: Its self-cleavage is 0.927.

Question: Which self-cleavage does the source give for UCCGGAUGAGCUUUCCGGUCUGAUGAGUCCGUGAGGACGAAACAG [A1U U9A] here?
Answer: The self-cleavage was 0.565.

Question: With UCCGGAUGUGCUUUCCGGUAUGAUGAGUCCGUGAGGACGAAACAG [A1U C20A] as the variant, how does the self-cleavage read?
Answer: The self-cleavage was 0.37.

Question: For ACGGGAUGUGCUUUCCGGUCUGAUGAGUCGGUGAGGACGAAACAG [C3G C30G], which self-cleavage is on record?
Answer: Its self-cleavage is 0.273.

Question: Which self-cleavage does the source give for ACCGGAUCUGCUUUCCGGUCUGACGAGUCCGUGAGGACGAAACAG [G8C U24C] here?
Answer: Its self-cleavage is 0.769.

Question: With ACCGGAUGUGCUUUCCGGUCUGAUGAGUCCGUGCGGACGAAACUG [A34C A44U] as the variant, how does the self-cleavage read?
Answer: Its self-cleavage is 0.512.

Question: Which self-cleavage does the source give for ACCGGAUAUGCUUUUCGGUCUGAUGAGUCCGUGAGGACGAAACAG [G8A C15U] here?
Answer: Its self-cleavage is 0.835.

Question: For ACCGGAUGUGCUUUCCGGUCUGAUGAUUCCGAGAGGACGAAACAG [G27U U32A], which self-cleavage is on record?
Answer: The self-cleavage was 0.547.

Question: Which self-cleavage does the source give for ACCGGAUGUGCUUUCCGGAAUGAUGAGUCCGUGAGGACGAAACAG [U19A C20A] here?
Answer: The self-cleavage was 0.287.

Question: With ACCGGAUGGGCUUUCCGGUCUGAUGAGUCCGUUAGGACGAAACAG [U9G G33U] as the variant, how does the self-cleavage read?
Answer: The self-cleavage was 0.788.

Question: Which self-cleavage does the source give for ACCGGAUGUCCUUUUCGGUCUGAUGAGUCCGUGAGGACGAAACAG [G10C C15U] here?
Answer: The self-cleavage was 1.01.

Question: Which self-cleavage does the source give for ACCGGAUGUGCUUUCCGGUCUGAUGAGUCUGUGAGGACGAAACAU [C30U G45U] here?
Answer: Its self-cleavage is 0.981.

Question: Which self-cleavage does the source give for ACCGGAUGUGCUUUCCGUUCUGAGGAGUCCGUGAGGACGAAACAG [G18U U24G] here?
Answer: Its self-cleavage is 0.607.

Question: For ACCGGAUGUGCUUUCCGGUCUUAUGAGUCCGUGAGGCCGAAACAG [G22U A37C], which self-cleavage is on record?
Answer: The self-cleavage was 0.3.

Question: Which self-cleavage does the source give for ACCGGAUGUGCUUUCCGGUCUGAUGGGUCCGUGAGGCCGAAACAG [A26G A37C] here?
Answer: Its self-cleavage is 0.252.

Question: Which self-cleavage does the source give for ACCGGAUGUGUUUUCCGGUCUGAUGAGUCCUUGAGGACGAAACAG [C11U G31U] here?
Answer: The self-cleavage was 1.35.

Question: For ACCGGAUGUGCUUUCCGGUCUGAUGCGUCAGUGAGGACGAAACAG [A26C C30A], which self-cleavage is on record?
Answer: The self-cleavage was 0.426.

Question: Which self-cleavage does the source give for ACCUGAUGUGCUUUCCGGUCCGAUGAGUCCGUGAGGACGAAACAG [G4U U21C] here?
Answer: The self-cleavage was 0.352.

Question: For ACCGGAUGUGCUUUCCCGUUUGAUGAGUCCGUGAGGACGAAACAG [G17C C20U], which self-cleavage is on record?
Answer: The self-cleavage was 0.331.

Question: Which self-cleavage does the source give for GCCGGAUGUGCUUUCCGGUCUGAUGAGUCCGUGAGCACGAAACAG [A1G G36C] here?
Answer: The self-cleavage was 0.654.

Question: Which self-cleavage does the source give for ACCGGAUGUGCUUUCCGGUCUGAUGAUUUCGUGAGGACGAAACAG [G27U C29U] here?
Answer: Its self-cleavage is 0.316.

Question: For AACGGAUAUGCUUUCCGGUCUGAUGAGUCCGUGAGGACGAAACAG [C2A G8A], which self-cleavage is on record?
Answer: The self-cleavage was 0.587.

Question: Which self-cleavage does the source give for ACCGGAUGUGCAUUCCGGGCUGAUGAGUCCGUGAGGACGAAACAG [U12A U19G] here?
Answer: Its self-cleavage is 0.431.

Question: With ACCGGAUGUGCUUCCCGGUCCGAUGAGUCCGUGAGGACGAAACAG [U14C U21C] as the variant, how does the self-cleavage read?
Answer: The self-cleavage was 0.504.

Question: With ACCGGAUGAGCUUUCCGGUCUGAUGAGCCCGUGAGGACGAAACAG [U9A U28C] as the variant, how does the self-cleavage read?
Answer: Its self-cleavage is 0.98.

Question: With ACCGGAUGUGCUUUCCGCUCUGAUGAGUCCGUGAGGGCGAAACAG [G18C A37G] as the variant, how does the self-cleavage read?
Answer: Its self-cleavage is 0.398.

Question: For ACCGGAUGUGCUUUCCGGUCUGAUCUGUCCGUGAGGACGAAACAG [G25C A26U], which self-cleavage is on record?
Answer: Its self-cleavage is 0.337.

Question: Which self-cleavage does the source give for ACCGGAUGUGCUUUCCGGUCUGAUGUCUCCGUGAGGACGAAACAG [A26U G27C] here?
Answer: The self-cleavage was 0.317.

Question: For ACCGAAUGUGCUUUCCGGUCUGAUGAGUCCGUGAGGAGGAAACAG [G5A C38G], which self-cleavage is on record?
Answer: Its self-cleavage is 0.575.

Question: Which self-cleavage does the source give for ACCGGAUGUGCUUUCCGGUCUAAUGAGUCCGUGAGGAUGAAACAG [G22A C38U] here?
Answer: The self-cleavage was 0.328.

Question: For ACCGGAUGUGCUUUCCGGUCUAAUGAGUCCGUGAGGAAGAAACAG [G22A C38A], which self-cleavage is on record?
Answer: Its self-cleavage is 0.327.

Question: For ACUGGAUGUGCUUUCCGGUCUGAUGAGUCCGUGAGGAAGAAACAG [C3U C38A], which self-cleavage is on record?
Answer: Its self-cleavage is 0.577.

Question: Which self-cleavage does the source give for ACCGGAUGUGCUUUCCGGUCUGAUGAGUCAAUGAGGACGAAACAG [C30A G31A] here?
Answer: The self-cleavage was 1.12.

Question: Which self-cleavage does the source give for ACCGGAUGUGCUUUUCGGUCUGAUGAGUCCGUGAGGACGAACCAG [C15U A42C] here?
Answer: Its self-cleavage is 0.351.

Question: With ACCGGAUGUGCUUUCCGCUCUGACGAGUCCGUGAGGACGAAACAG [G18C U24C] as the variant, how does the self-cleavage read?
Answer: Its self-cleavage is 0.477.

Question: Which self-cleavage does the source give for ACCGGAUGAGCUCUCCGGUCUGAUGAGUCCGUGAGGACGAAACAG [U9A U13C] here?
Answer: The self-cleavage was 1.37.

Question: For ACCGGAUGUGCUUUCCGCUCCGAUGAGUCCGUGAGGACGAAACAG [G18C U21C], which self-cleavage is on record?
Answer: Its self-cleavage is 0.284.

Question: With ACCGGAUGUGCUUGCCGAUCUGAUGAGUCCGUGAGGACGAAACAG [U14G G18A] as the variant, how does the self-cleavage read?
Answer: The self-cleavage was 0.54.

Question: For ACAGGAUGUGCUUUCCGGUCUUAUGAGUCCGUGAGGACGAAACAG [C3A G22U], which self-cleavage is on record?
Answer: The self-cleavage was 0.291.

Question: With AACGGAUGUGCUUUCCGGUCUGAUGAGUCCGUGAGGGCGAAACAG [C2A A37G] as the variant, how does the self-cleavage read?
Answer: The self-cleavage was 0.427.

Question: For ACCGGAUGUGCUUUCCGGUAUGAUGAGACCGUGAGGACGAAACAG [C20A U28A], which self-cleavage is on record?
Answer: The self-cleavage was 0.435.

Question: For ACCUGAUGUGCUUUCCGGUCUGAUGAUUCCGUGAGGACGAAACAG [G4U G27U], which self-cleavage is on record?
Answer: Its self-cleavage is 0.294.
